The supplement of paper PMC9170038

Tested on: K4 kissing-loop RNA reporter
Test: apparent KD of K4 kissing-loop reporter; higher = weaker reporter binding
Details: Eterna round: R107; input ligand: arginine 13.2 mM
Method: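 RNA-MaP round R107: designed RNA switches with theophylline, tryptophan, arginine or FMN aptamers are transcribed on-chip within common flanks. They are titrated with a labelled K4 kissing-loop RNA reporter in RNA-MaP buffer (100 mM Tris pH 7.5, 80 mM KCl, 4 mM MgCl2), without ligand or with the indicated ligand. Median apparent KD per design.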
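Also: bound reporter read as fluorescence of individual clusters on recovered sequencing chips by microscopy, with normalized cluster intensities fitted with a binding model.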

“UGAUUUAACUGAAGGAGCGGCAAUUGAUAAGGAAAUAUAGUGAUGUUAUAUAAGAGAGAGAGCCAGGUAGGUCGCAGAGGGAGGA [ExArgB.H]” and “UUGGCUGGACGGGAUACCAGCCAAAUCGUGUGCUUGGGAUGUCUAAGAGCCAGUGAUGUUGGCCCUUGGCAGCCCUCCCAGCUUG [Inontixe]” are within 1.5-fold of each other in “apparent KD of K4 kissing-loop reporter” value: 105 nM for the first, 88.6 nM for the second.

Compared with “CGCAGUGAUGUUGCGAGUAACUACAGGGAAGGAGCGCGGUAGUCCGCAGGUAGGUCGCCCACGCAGUGAUGUUGCGUCAUAGGGU [Exclusion Arg A GF7]”, “CCUGCGGCUUCCGGCGGGCCCGAUUUAUAAAAGGAUAUGUGCGUACACAGAAGGUUUAACGAGGGACCGAGAGUGAUGUUCUCCU [theeternabot_sameState_KL_FMN_A_33]” is 1.6-fold higher in “apparent KD of K4 kissing-loop reporter” value: 109 nM for the first, 174 nM for the second.

First: UGUCAUUGGUCUGAUACCAGCUUGAUCGGAAAACGAUCUGCUGGAGUGAUGUUCCAAUAAAGCCCUUGGCAGCAGACCGAUGACU [TheoBS 7 #SwitchBubble #StaticStem]
Second: GCAAACCUCAGUGAUGUUGAGUAAUCGGAAGGAGCGCGUGAAAACGCAGGUAGGUCGCCGAUACAUGAAGUAUCUUCGUGUUUGC [Arginine A K4 23]
The “apparent KD of K4 kissing-loop reporter” value of the first is 1.6-fold higher: 569 nM for the first, 365 nM for the second.

Same assay, conditions: Eterna round: R107; input ligand: none

Compared with “GCAGUGAUGUUGCGAAUCGGCCAUGAUACAGAGGAUAUCGUGCCUUCGAGAAGGUUGUAUAGAGGAUACGAUAUUAUAAAUGACG [Same State FMN A GF 1]”, “AAGGUCACUACUACAGUGAUGUUGUGGGAGCAGGAUAUGCAGAAAUGCAGAAGGGCUCGCUCCAGGUGACCGAAUGAAACAUUCA [whbob_SS_FMNA__2th174]” is 4.1-fold higher in “apparent KD of K4 kissing-loop reporter” value: 432 nM for the first, 1780 nM for the second.

“AAUAAUAAUAAAUAAAGAUUGAUGAGCAAACGAGGACCGGUACGGCCGCCACUCGAGUGAUGUUCGAGAAGCUCAUCAAUCAUAA [AK4.8 Exc Tryptophan A]” and “AACGCUUGAAUAACAAGCGAAAUAAAUUCGCGAGGACCGGUACGGCCGCCACUCGCUAACUGCGAGUGAUGUUCGAUAAUAAAAU [Mat - Mod of OpenEnded 3 - D15]” are within 1.5-fold of each other in “apparent KD of K4 kissing-loop reporter” value: 138 nM for the first, 136 nM for the second.

First: GAUUUAGAGGCGGCCGCCACUAGUGAUGUUAGUGAUGUUUGAUACUGAAUAUAUCUGCGAGUAGAUAGGACCGGGCCAGAUGGAG [plmfmullin]
Second: AGUAGAGCAUCAGAUACCAGACAGAACUGAUGGUAAGGAGUGAUGUUCCUUAAUCAGCUUGUCCCUUGGCAGCUGAUAAUAGUCA [#13 K4 Theophylline B Same State]
The “apparent KD of K4 kissing-loop reporter” value of the first is 2.4-fold lower: 195 nM for the first, 475 nM for the second.

“GCUAUGGUAGGAAGGAGCGCUUAUUUAUUUUUACGAGUGAUGUUCGGUAGUAGAUAGUUAAAGCAGGUAGGUCGCCUACUAUAGC [Arginine B K4 16]” and “UCCUGCAAUCUGCCACGAAAGUGGGUUGAUACCAGAGUCGAAAGACUCCCUUGGCAGCGAGUGAUGUUCGUUGCAGGUAAAUAAA [MatMod 8 - Jieux - Exclusion - Theophylline A]” are within 1.5-fold of each other in “apparent KD of K4 kissing-loop reporter” value: 148 nM for the first, 200 nM for the second.

Compared with “UGGAUUAGGACGGCCGCCACUACGCUGGCAUGAGUGAUGUUCUAAGGCUUGUCAAAGAUCCAGAGUAGGACCGGGUCCAAUGACU [theeternabot_exclusion_KL_Trp_B_38]”, “GUUACGCAUGGAAGGAGCGCACUCCGAUUGGGCGACGCAGUGAUGUUGUGGUUCGUUCGAAUGCAGGUAGGUCGCCAUGUGUAAC [Ex Arginine B K4 21]” is 1.6-fold lower in “apparent KD of K4 kissing-loop reporter” value: 275 nM for the first, 176 nM for the second.

Going from “ACGUGCCCAGUGAUGUUGGAUAAAUAUGAAGGAGCGUGCGAAAGCACAGGUAGGUCGCAUAAUAGCACGAGCCACGAAAGUGGCA [#SwitchBubble 7 #K4Early #Sliding]” to “AUUUUGGUUUAGAGUGAUGUUCCUUGUGUUCGAGGACCGGUACGGCCGCCACUCGGGUAGAAAAGAAAAGAAAUGUUUGAUUUUU [BDazzled - #10 SS Tryptophan A]”, the “apparent KD of K4 kissing-loop reporter” value rises from 181 nM to 548 nM (3-fold).

Going from “UUUAUGAGGUCGGCCGCCACUGGAUUUAUGUUUGUUUCGUCUGGAUCAAAGUGAUGUUUUGAGUCCAGGACCGGGACAUUUGUUA [whbob_Ex_Tryp_B_w40]” to “AAUAAUCUAGGUGAUACCAGCUCAACAUGAGUGAUGUUCAUGAAAUAAUGUAGAGUUGAGAGCCCUUGGCAGCACCUAGAUAAUA [KL-SSTheoB5]”, the “apparent KD of K4 kissing-loop reporter” value rises from 80.5 nM to 239 nM (3-fold).

“AUCGUUGUCUGAGGAUAUCGUUUUACUGUAGUGAUGUUACAGAAAAUUCACAUUAUAAUUUCUAUUCGAGAAGGCAGACUACGUA [JR_ExcFMNB_Sub015]” and “GUAUCGCUAGGAGGAUAUUUCAAUUUGACUCUUUGAGUUUUUACGGAGUGAUGUUCCGUUUUACGGAAAGAAGGCCUAGUGAUAC [FMN B 15]” are within 1.5-fold of each other in “apparent KD of K4 kissing-loop reporter” value: 120 nM for the first, 162 nM for the second.

First: UGAUAGGACAGAAGGAGCGGGAGUGAUGUUCCCAAAAGUAUAAGGUGUCAAAAGACACCCUCCCAGGUAGGUCGCUGUCCUAUCU
Second: CGUUCCUCUGUCGAUACCAGCUUCAGUUGGCGGCCAGUGAUGUUGGUAUUGCCGAUGCCAAGCCCUUGGCAGCGAUAUGAGACCC [Aredi]
The “apparent KD of K4 kissing-loop reporter” value of the first is 1.7-fold lower: 353 nM for the first, 597 nM for the second.

“GGUAGCAUGGCGGCCGCCACUAUCAGGAGUGAUGUUCCAACGCAGAGCUUCAGCUAGUGUGUAAAUAGGACCGGGCCAUGCUACC” and “AAUUAAGUGACGGCCGCCACUAGGGUGAUUUUUUUGUUUGAGUGAUGUUUUGAUGUUUGAUUUUGUAGGACCGGGUUAGGUGAUG [juhmullin]” are within 1.5-fold of each other in “apparent KD of K4 kissing-loop reporter” value: 512 nM for the first, 426 nM for the second.

“AGUGAUGUGGGAAGGAGCGCUACAUCACUUCAGUGAUGUUGAAGUGAUGAAUUAGUGAUGUAGCAGGUAGGUCGCCUAGAUGUUA [KL-XARG-B12]” was tested, and the “apparent KD of K4 kissing-loop reporter” value was 58.3 nM.
